Measured values reported in patent US20150147764.

Assays:
[1] = system: FRETS-VWF73 polypeptide substrate (SEQ ID NO: 6), VWF D1596 to R1668
[2] = system: GTI_FRET4 polypeptide substrate (SEQ ID NO: 1), synthetic 62 amino acid VWF A2 domain derived substrate
[3] = system: GTI_FRET5 polypeptide substrate (SEQ ID NO: 7), synthetic 55 amino acid VWF A2 domain derived substrate
Sequence of GTI_FRET5 polypeptide substrate (SEQ ID NO: 7), synthetic 55 amino acid VWF A2 domain derived substrate (chain, as listed by the source): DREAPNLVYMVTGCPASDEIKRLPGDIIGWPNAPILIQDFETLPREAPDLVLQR

Sequence of GTI_FRET4 polypeptide substrate (SEQ ID NO: 1), synthetic 62 amino acid VWF A2 domain derived substrate (chain, as listed by the source): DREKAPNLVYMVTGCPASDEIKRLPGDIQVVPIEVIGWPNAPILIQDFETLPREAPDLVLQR
Sequence of FRETS-VWF73 polypeptide substrate (SEQ ID NO: 6), VWF D1596 to R1668 (chain, as listed by the source): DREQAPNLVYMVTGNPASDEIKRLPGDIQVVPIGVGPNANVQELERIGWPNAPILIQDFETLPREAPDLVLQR

“ADAMTS13 (a disintegrin-like and metallopeptidase with thrombospondin type-1 motif, 13), as present in plasma samples, calibrators and controls” was tested, and the “RFU difference between Calibrator A and Calibrator E at 30 minutes” value [1] was “approximately 1500 to 2000 RFU difference”, the “RFU difference between Calibrator A and E at 30 minutes” value [1] was 2500 RFU observed for FRETS-VWF73 and the Increase in fluorescence (15 min - 0 min reading), sample Calibrator A [2] was 676 RFU. It also gave an Increase in fluorescence (15 min - 0 min reading), sample Calibrator B [2] of 1760 RFU, an Increase in fluorescence (15 min - 0 min reading), sample Calibrator C [2] of 6180 RFU and an Increase in fluorescence (15 min - 0 min reading), sample Calibrator D [2] of 10900 RFU. The Increase in fluorescence (15 min - 0 min reading), sample Calibrator E [2] was 18700 RFU, the Increase in fluorescence (15 min - 0 min reading), sample MON110707 [2] was 17900 RFU and the Increase in fluorescence (15 min - 0 min reading), sample Positive Control High [2] was 9150 RFU. The Increase in fluorescence (15 min - 0 min reading), sample Positive Control Low [2] was 2180 RFU, the Increase in fluorescence (15 min - 0 min reading), sample UAMS041609 [2] was 3880 RFU and the Increase in fluorescence (15 min - 0 min reading), sample VF [2] was 1290 RFU. It also gave an Increase in fluorescence (30 min - 0 min reading), sample Calibrator A [2] of 843 RFU, an Increase in fluorescence (30 min - 0 min reading), sample Calibrator B [2] of 3000 RFU and an Increase in fluorescence (30 min - 0 min reading), sample Calibrator C [2] of 11700 RFU. It also gave an Increase in fluorescence (30 min - 0 min reading), sample Calibrator D [2] of 20600 RFU, an Increase in fluorescence (30 min - 0 min reading), sample Calibrator E [2] of 35100 RFU and an Increase in fluorescence (30 min - 0 min reading), sample MON110707 [2] of 33400 RFU. It also gave an Increase in fluorescence (30 min - 0 min reading), sample Positive Control High [2] of 17300 RFU, an Increase in fluorescence (30 min - 0 min reading), sample Positive Control Low [2] of 3900 RFU and an Increase in fluorescence (30 min - 0 min reading), sample UAMS041609 [2] of 7930 RFU. For the same substance, the Increase in fluorescence (30 min - 0 min reading), sample VF [2] was 2440 RFU, the Increase in fluorescence (45 min - 0 min reading), sample Calibrator A [2] was 921 RFU and the Increase in fluorescence (45 min - 0 min reading), sample Calibrator B [2] was 4160 RFU. It also gave an Increase in fluorescence (45 min - 0 min reading), sample Calibrator C [2] of 16800 RFU, an Increase in fluorescence (45 min - 0 min reading), sample Calibrator D [2] of 29200 RFU and an Increase in fluorescence (45 min - 0 min reading), sample Calibrator E [2] of 49400 RFU. It also gave an Increase in fluorescence (45 min - 0 min reading), sample MON110707 [2] of 46800 RFU, an Increase in fluorescence (45 min - 0 min reading), sample Positive Control High [2] of 24900 RFU and an Increase in fluorescence (45 min - 0 min reading), sample Positive Control Low [2] of 5510 RFU. It also gave an Increase in fluorescence (45 min - 0 min reading), sample UAMS041609 [2] of 11700 RFU, an Increase in fluorescence (45 min - 0 min reading), sample VF [2] of 3550 RFU and an Increase in fluorescence (60 min - 0 min reading), sample Calibrator A [2] of 1170 RFU. It also gave an Increase in fluorescence (60 min - 0 min reading), sample Calibrator B [2] of 5360 RFU, an Increase in fluorescence (60 min - 0 min reading), sample Calibrator C [2] of 21700 RFU and an Increase in fluorescence (60 min - 0 min reading), sample Calibrator D [2] of 37300 RFU. The Increase in fluorescence (60 min - 0 min reading), sample Calibrator E [2] was 61100 RFU, the Increase in fluorescence (60 min - 0 min reading), sample MON110707 [2] was 58700 RFU and the Increase in fluorescence (60 min - 0 min reading), sample Positive Control High [2] was 31900 RFU. For the same substance, the Increase in fluorescence (60 min - 0 min reading), sample Positive Control Low [2] was 7170 RFU, the Increase in fluorescence (60 min - 0 min reading), sample UAMS041609 [2] was 15900 RFU and the Increase in fluorescence (60 min - 0 min reading), sample VF [2] was 4690 RFU. For the same substance, the Increase in fluorescence (75 min - 0 min reading), sample Calibrator A [2] was 1010 RFU, the Increase in fluorescence (75 min - 0 min reading), sample Calibrator B [2] was 6470 RFU and the Increase in fluorescence (75 min - 0 min reading), sample Calibrator C [2] was 26700 RFU. The Increase in fluorescence (75 min - 0 min reading), sample Calibrator D [2] was 44500 RFU, the Increase in fluorescence (75 min - 0 min reading), sample Calibrator E [2] was 70600 RFU and the Increase in fluorescence (75 min - 0 min reading), sample MON110707 [2] was 68400 RFU. It also gave an Increase in fluorescence (75 min - 0 min reading), sample Positive Control High [2] of 39800 RFU, an Increase in fluorescence (75 min - 0 min reading), sample Positive Control Low [2] of 8790 RFU and an Increase in fluorescence (75 min - 0 min reading), sample UAMS041609 [2] of 19900 RFU. The Increase in fluorescence (75 min - 0 min reading), sample VF [2] was 5780 RFU, the Increase in fluorescence (90 min - 0 min reading), sample Calibrator A [2] was 959 RFU and the Increase in fluorescence (90 min - 0 min reading), sample Calibrator B [2] was 7580 RFU. The Increase in fluorescence (90 min - 0 min reading), sample Calibrator C [2] was 32200 RFU, the Increase in fluorescence (90 min - 0 min reading), sample Calibrator D [2] was 53600 RFU and the Increase in fluorescence (90 min - 0 min reading), sample Calibrator E [2] was 83000 RFU. It also gave an Increase in fluorescence (90 min - 0 min reading), sample MON110707 [2] of 78400 RFU, an Increase in fluorescence (90 min - 0 min reading), sample Positive Control High [2] of 47500 RFU and an Increase in fluorescence (90 min - 0 min reading), sample Positive Control Low [2] of 10400 RFU. For the same substance, the Increase in fluorescence (90 min - 0 min reading), sample UAMS041609 [2] was 24700 RFU, the Increase in fluorescence (90 min - 0 min reading), sample VF [2] was 7260 RFU and the “RFU difference between Calibrator A (0% ADAMTS13 activity) and Calibrator E (100% ADAMTS13 activity) at 30 minutes” value [2] was “approximately 34,000 Relative Fluorescence Units (RFU) difference”. The “RFU difference between Calibrator A and E at 30 minutes” value [2] was “approximately 35000 RFU”, the “calibration curve / cleavage” value [3] was “the resulting calibration curve that is obtained is linear (see FIG. 5) and cleavage of the substrate occurs” and the “change in fluorescence with time (cleavage)” value [3] was “demonstrates that cleavage of the SEQ ID NO: 7 polypeptide substrate occurs”.
